Results as given in patent US20260242478A1 (published 2026).
Where no end group is shown, it is not given here.

Key:
[1] = target: T1, Anti-PSMA Fab (SEQ ID NOs: 19, 20); assay: phage binding ELISA; biotinylated anti-PSMA Fab on neutravidin plate, clonal phage supernatant, anti-M13-HRP detection
T1 construct: Used biotinylated and captured on neutravidin coated plates; also called 006 PSMA Fab
Description: (§1) Clonal phage were harvested as crude supernatants and screened via standard ELISAs. […] Prior to the addition of clonal phage. wells were incubated with blocking buffer and PSMA antigen or blocking buffer alone. Without washing or aspirating, clonal phage supernatants were then added to the wells and incubated for a short time. Wells were then washed followed by detection of bound phage using a horse radish conjugated anti-M13 antibody.

[2] = target: T1, Anti-PSMA Fab (SEQ ID NOs: 19, 20); assay: phage binding ELISA; biotinylated anti-PSMA Fab on neutravidin plate, wells pre-incubated with PSMA antigen as competitor, anti-M13-HRP detection
Description: as §1

[3] = target: T2, Anti-PSMA Fab (SEQ ID NOs: 19, 20); assay: phage binding ELISA; PSMA Fab coated wells pre-incubated with PSMA antigen as competitor, anti-M13 HRP detection
T2 construct: also called 006 PSMA Fab
Description: as §1

[4] = target: T2, Anti-PSMA Fab (SEQ ID NOs: 19, 20); assay: phage binding ELISA; biotinylated PSMA Fab on neutravidin plate, clonal phage supernatant, anti-M13 HRP detection;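 further: wells were preincubated with blocking buffer either containing PSMA antigen or without it before crude phage supernatant was added, briefly incubated, then washed prior to detection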
Description: as §1

[5] = target: T3, Anti-PSMA Fab (SEQ ID NOs: 19, 20); assay: phage binding ELISA; clonal phage on biotinylated anti-PSMA Fab captured on neutravidin, anti-M13 HRP detection
T3 construct: In the phage ELISA the Fab was biotinylated and captured on neutravidin coated plates; also called 006 PSMA Fab
Description: as §1

[6] = target: T3, Anti-PSMA Fab (SEQ ID NOs: 19, 20); assay: phage binding ELISA on captured anti-PSMA Fab; competitor: PSMA antigen
Description: as §1

[7] = target: T4, Anti-PSMA Fab (SEQ ID NOs: 19, 20); assay: phage binding ELISA; biotinylated Fab on neutravidin plate, anti-M13 HRP detection
T4 construct: Biotinylated and captured on neutravidin coated plates in the phage ELISA; also called 006 PSMA Fab
Description: as §1

[8] = target: T4, Anti-PSMA Fab (SEQ ID NOs: 19, 20); assay: phage binding ELISA on captured Fab; competitor PSMA antigen pre-incubated in the wells
Description: as §1

B1: Phage-1717 (peptide)
peptide: HCLGPALGPVDGDC
modifications: cysteine pairing not given here; also: displayed on phage as pIII fusion, pIII sequence, linker and fusion order not given here
notes: not shown: pIII coat protein of the bacteriophage to which the peptide is fused
Anti-PSMA Fab (SEQ ID NOs: 19, 20) signal [1]: 2.33 | Anti-PSMA Fab signal in the presence of PSMA [2]: 0.076

B2: Phage-1718 (peptide)
peptide: SCGWLRGEEFGWWC
modifications: cysteine pairing not given here; also: displayed on phage as pIII fusion, pIII sequence, linker and fusion order not given here
notes: also called Peptide-190; not shown: pIII coat protein of the bacteriophage to which the peptide is fused
Anti-PSMA Fab (SEQ ID NOs: 19, 20) signal [1]: 0.648 | Anti-PSMA Fab signal in the presence of PSMA [2]: 0.071

B3: Phage-1719 (peptide)
peptide: DCFYAADIHWNYCN
modifications: cysteine pairing not given here; also: displayed on phage as pIII fusion, pIII sequence, linker and fusion order not given here
notes: as for B1
Anti-PSMA Fab (SEQ ID NOs: 19, 20) signal [1]: 1.88 | Anti-PSMA Fab signal in the presence of PSMA [2]: 1.15

B4: Phage-1721 (peptide)
peptide: SCFSFARLEVVPCD
modifications: cysteine pairing not given here; also: displayed on phage as pIII fusion, pIII sequence, linker and fusion order not given here
notes: as for B1
Anti-PSMA Fab (SEQ ID NOs: 19, 20) signal [1]: 1.26 | Anti-PSMA Fab signal in the presence of PSMA [2]: 0.0555

B5: Phage-1722 (peptide)
peptide: TCLRFADLAIIHCD
modifications: cysteine pairing not given here; also: displayed on phage as pIII fusion, pIII sequence, linker and fusion order not given here
notes: also called Peptide-160; not shown: pIII coat protein of the bacteriophage to which the peptide is fused
Anti-PSMA Fab (SEQ ID NOs: 19, 20) signal [1]: 1.82 | Anti-PSMA Fab signal in the presence of PSMA [2]: 0.0697

LEPLCVPRWMCVGF (tested as clonal phage supernatant) [Phage-1803]
Anti-PSMA Fab signal in the presence of PSMA [3]: 0.112 | Anti-PSMA Fab (SEQ ID NOs: 19, 20) signal [4]: 2.36

ITPVCKPLWMCSGL (tested as clonal phage supernatant) [Phage-1804]
Anti-PSMA Fab signal in the presence of PSMA [3]: 0.0764 | Anti-PSMA Fab (SEQ ID NOs: 19, 20) signal [4]: 2.35

VEVKCFPLWFCVGL (tested as clonal phage supernatant) [Phage-1805]
Anti-PSMA Fab signal in the presence of PSMA [3]: 0.0923 | Anti-PSMA Fab (SEQ ID NOs: 19, 20) signal [4]: 2.23

ITPICKPAWICSGF (tested as clonal phage supernatant) [Phage-1806]
Anti-PSMA Fab signal in the presence of PSMA [3]: 0.0631 | Anti-PSMA Fab (SEQ ID NOs: 19, 20) signal [4]: 2.2

VVIKCKPEWMCSGF (tested as clonal phage supernatant) [Phage-1807]
Anti-PSMA Fab signal in the presence of PSMA [3]: 0.0946 | Anti-PSMA Fab (SEQ ID NOs: 19, 20) signal [4]: 2.18

PEHLCLPRWMCEGF (tested as clonal phage supernatant) [Phage-1808]
Anti-PSMA Fab signal in the presence of PSMA [3]: 0.135 | Anti-PSMA Fab (SEQ ID NOs: 19, 20) signal [4]: 1.78

YERACIPNWICEGF (tested as clonal phage supernatant) [Phage-1809]
Anti-PSMA Fab signal in the presence of PSMA [3]: 0.0842 | Anti-PSMA Fab (SEQ ID NOs: 19, 20) signal [4]: 1.03

TTHVCIPSWMCSGF (tested as clonal phage supernatant) [Phage-1810]
Anti-PSMA Fab signal in the presence of PSMA [3]: 0.0668 | Anti-PSMA Fab (SEQ ID NOs: 19, 20) signal [4]: 2.15

VNHWCVPTWMCAGF (tested as clonal phage supernatant) [Phage-1811]
Anti-PSMA Fab signal in the presence of PSMA [3]: 0.186 | Anti-PSMA Fab (SEQ ID NOs: 19, 20) signal [4]: 2.41

IVVKCVPSWMCEGF (tested as clonal phage supernatant) [Phage-1812]
Anti-PSMA Fab signal in the presence of PSMA [3]: 0.102 | Anti-PSMA Fab (SEQ ID NOs: 19, 20) signal [4]: 2.4

TVAYCKPAWMCQGF (tested as clonal phage supernatant) [Phage-1813]
Anti-PSMA Fab signal in the presence of PSMA [3]: 0.108 | Anti-PSMA Fab (SEQ ID NOs: 19, 20) signal [4]: 2.37

TEVRCTPPWMCLGF (tested as clonal phage supernatant) [Phage-1814]
Anti-PSMA Fab signal in the presence of PSMA [3]: 0.0981 | Anti-PSMA Fab (SEQ ID NOs: 19, 20) signal [4]: 2.36

VERLCTPAWMCHGF (tested as clonal phage supernatant) [Phage-1815]
Anti-PSMA Fab signal in the presence of PSMA [3]: 0.214 | Anti-PSMA Fab (SEQ ID NOs: 19, 20) signal [4]: 2.36

VLKYCIPDWMCAGI (tested as clonal phage supernatant) [Phage-1816]
Anti-PSMA Fab signal in the presence of PSMA [3]: 0.0978 | Anti-PSMA Fab (SEQ ID NOs: 19, 20) signal [4]: 2.24

PERLCTPPWMCLGF [Phage-1817]
Anti-PSMA Fab (SEQ ID NOs: 19, 20) signal [5]: 2.24 | Anti-PSMA Fab signal in the presence of PSMA [6]: 0.0917

B6: Phage-1818 (peptide)
peptide: MERWCVPDWMCATF
modifications: cysteine pairing not given here; also: displayed on phage as pIII fusion, pIII sequence and linker not given here
Anti-PSMA Fab (SEQ ID NOs: 19, 20) signal [5]: 2.47 | Anti-PSMA Fab signal in the presence of PSMA [6]: 0.0578

ALKLCIPFWMCEGL [Phage-1819]
Anti-PSMA Fab (SEQ ID NOs: 19, 20) signal [5]: 2.44 | Anti-PSMA Fab signal in the presence of PSMA [6]: 0.129

MVKWCTPAWMCEML [Phage-1820]
Anti-PSMA Fab (SEQ ID NOs: 19, 20) signal [5]: 2.41 | Anti-PSMA Fab signal in the presence of PSMA [6]: 0.113

B7: Phage-1821 (peptide)
peptide: IVKRCEPMWMCAGF
modifications: cysteine pairing not given here; also: displayed on phage as pIII fusion, pIII sequence and linker not given here
Anti-PSMA Fab (SEQ ID NOs: 19, 20) signal [5]: 2.38 | Anti-PSMA Fab signal in the presence of PSMA [6]: 0.264

WENWCTPAWMCVGF [Phage-1822]
Anti-PSMA Fab (SEQ ID NOs: 19, 20) signal [5]: 2.37 | Anti-PSMA Fab signal in the presence of PSMA [6]: 0.0932

TEIRCTPQWMCLGF [Phage-1823]
Anti-PSMA Fab (SEQ ID NOs: 19, 20) signal [5]: 2.37 | Anti-PSMA Fab signal in the presence of PSMA [6]: 0.0871

VEKMCRPAWMCWVM [Phage-1824]
Anti-PSMA Fab (SEQ ID NOs: 19, 20) signal [5]: 2.37 | Anti-PSMA Fab signal in the presence of PSMA [6]: 0.214

ISKLCTPPWMCEML [Phage-1825]
Anti-PSMA Fab (SEQ ID NOs: 19, 20) signal [5]: 2.33 | Anti-PSMA Fab signal in the presence of PSMA [6]: 0.0582

WENWCQPAWMCTGL [Phage-1826]
Anti-PSMA Fab (SEQ ID NOs: 19, 20) signal [5]: 2.33 | Anti-PSMA Fab signal in the presence of PSMA [6]: 0.0691

VLKLCVPPWMCMAQ [Phage-1827]
Anti-PSMA Fab (SEQ ID NOs: 19, 20) signal [5]: 2.32 | Anti-PSMA Fab signal in the presence of PSMA [6]: 0.0968

MDNWCTPEWMCLGF [Phage-1828]
Anti-PSMA Fab (SEQ ID NOs: 19, 20) signal [5]: 2.3 | Anti-PSMA Fab signal in the presence of PSMA [6]: 0.065

MDKWCTPPWMCDWL [Phage-1829]
Anti-PSMA Fab (SEQ ID NOs: 19, 20) signal [5]: 2.3 | Anti-PSMA Fab signal in the presence of PSMA [6]: 0.136

EPKWCTPAWMCEWM [Phage-1830]
Anti-PSMA Fab (SEQ ID NOs: 19, 20) signal [5]: 2.29 | Anti-PSMA Fab signal in the presence of PSMA [6]: 0.0904

B8: Phage-2192 (peptide)
peptide: MTPWCKPAWMCQGI
notes: Clonal phage of the peptide-180 library, tested as crude phage supernatant; not shown: fused to pIII of the bacteriophage
Anti-PSMA Fab (SEQ ID NOs: 19, 20) signal [7]: 1.63 | Anti-PSMA Fab signal in the presence of PSMA [8]: 0.0994

B9: Phage-2193 (peptide)
peptide: ESHLCIPAWMCDVQ
notes: as for B8
Anti-PSMA Fab (SEQ ID NOs: 19, 20) signal [7]: 1.63 | Anti-PSMA Fab signal in the presence of PSMA [8]: 0.0973

B10: Phage-2194 (peptide)
peptide: HAMWCIPAWMCENL
notes: as for B8
Anti-PSMA Fab (SEQ ID NOs: 19, 20) signal [7]: 1.63 | Anti-PSMA Fab signal in the presence of PSMA [8]: 0.0809

B11: Phage-2195 (peptide)
peptide: LYKWCMPAWMCEQK
notes: as for B8
Anti-PSMA Fab (SEQ ID NOs: 19, 20) signal [7]: 1.62 | Anti-PSMA Fab signal in the presence of PSMA [8]: 0.0702

B12: Phage-2196 (peptide)
peptide: LADWCRPVWMCEGF
notes: as for B8
Anti-PSMA Fab (SEQ ID NOs: 19, 20) signal [7]: 1.62 | Anti-PSMA Fab signal in the presence of PSMA [8]: 0.287

B13: Phage-2197 (peptide)
peptide: LEKWCIPSWMCDGM
notes: as for B8
Anti-PSMA Fab (SEQ ID NOs: 19, 20) signal [7]: 1.62 | Anti-PSMA Fab signal in the presence of PSMA [8]: 0.0637
